The values that follow come from patent US20240425569A1 (VISTERRA, published 2024).

Residue numbers refer to the chain shown, from its start. Like-named read-outs stand apart in the source and are kept apart here.

For orientation: Kd means a measure of binding affinity in units of concentration. Read a low Kd as tighter binding.

For test [1], the target named is T1, Puerto Rico/1977 (serotype III EDIII).
T1 construct: Genotype IV; also called ED3-DV3/PuertoRico77
T1 E protein domain III (EDIII): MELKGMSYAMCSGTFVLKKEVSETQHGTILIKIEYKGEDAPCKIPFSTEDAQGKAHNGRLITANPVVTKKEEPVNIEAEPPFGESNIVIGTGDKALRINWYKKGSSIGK
Briefly: ELISA; row Puerto Rico/1977, serotype III, genotype IV.

The target of test [2] is T2, Venezuela/2007 (serotype II EDIII).
T2 construct: also called ED3-DV2/Venezuela07
T2 E protein domain III (EDIII): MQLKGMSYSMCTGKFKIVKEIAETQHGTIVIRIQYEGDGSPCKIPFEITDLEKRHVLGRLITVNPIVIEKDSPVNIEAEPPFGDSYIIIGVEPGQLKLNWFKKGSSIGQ
Nature of the test: SPR; row Venezuela/2007, serotype II, genotype SE-Asian/American.

Test [3] concerns the target T3, Mexico/2007 (serotype I EDIII).
T3 construct: also called ED3-DV1/Mexico07
T3 E protein domain III (EDIII): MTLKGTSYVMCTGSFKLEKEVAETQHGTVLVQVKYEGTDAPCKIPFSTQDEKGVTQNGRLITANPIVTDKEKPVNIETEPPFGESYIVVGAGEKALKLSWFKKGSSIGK

Test [4] concerns the target ED3-DV4/H241/Phil56 (EDIII of DENV-4 strain H241) (dengue virus serotype DENV-4, strain …, UniProt Q58HT7 572-679). Nature of the test: SPR; row Philippines/1956 (H241)*, serotype IV, genotype I. (In general: Surface plasmon resonance follows binding to a sensor surface in real time, without labels.)
For test [5], the target named is T4, Singapore/2009 (serotype III EDIII).
T4 construct: also called ED3-DV3/Sing09; DENV-3 Sing
T4 E protein domain III (EDIII): T1 E protein domain III (EDIII) with S12Q, G13N, T14A, I33V, A51G, T91I, R97K

The target in test [6] is T5, Mexico/1977 (BC287/97)* (serotype IV EDIII) (Dengue virus 4).
T5 construct: isolated EDIII protein; also called EDIII of DENV-4 Mexico/1997 (BC287/97); DENV-4 BC2
Nature of the test: Kd table, method not stated; Ag DENV-4 BC2.

Test [7] addresses T6, Brazil/2011 (serotype IV EDIII).
T6 E protein domain III (EDIII): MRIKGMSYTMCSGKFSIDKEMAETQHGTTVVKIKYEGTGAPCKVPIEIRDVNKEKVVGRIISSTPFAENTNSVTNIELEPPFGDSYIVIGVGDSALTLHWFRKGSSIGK
Nature of the test: SPR; row Brazil/2011, serotype IV, genotype I.

Test [8] addresses T7, Nicaragua/2010 (serotype III EDIII).
T7 construct: also called ED3-DV3/Nicaragua10; DENV-3 Nic
T7 E protein domain III (EDIII): T1 E protein domain III (EDIII) with S12T, G13N, I33V, A40V, A51G, T91I, K94N, R97K

Test [9] addresses T8, EDIII-DV4 (E protein domain III of dengue virus serotype DV-4) (dengue virus serotype DV-4, UniProt P09866 572-679).
T8 construct: also called DENV-4

The target of test [10] is T9, Peru/1995 (serotype II EDIII).
T9 construct: also called ED3-DV2/Peru95; DENV-2 Peru
Nature of the test: ELISA; row Peru/1995, serotype II, genotype American.

The target is the same in test [11]. Nature of the test: SPR; row Peru/1995, serotype II, genotype American.
The target in test [12] is T10, Thailand/1997 (serotype IV EDIII).
T10 E protein domain III (EDIII): T6 E protein domain III (EDIII) with K19R, I33V, N69S
Briefly: ELISA; row Thailand/1997, serotype IV, genotype III. (In general: In an ELISA, binding on a coated surface is turned into a signal by an enzyme label.)

Test [13] concerns the target T9, Peru/1995 (serotype II EDIII). Nature of the test: Kd table, method not stated; Ag DENV-2 Peru.
The target in test [14] is T11, EDIII-DV3 (E protein domain III of dengue virus serotype DV-3) (dengue virus serotype DV-3, UniProt P27915 571-678).
T11 construct: also called DENV-3; EDIII of DV-3
Briefly: competition ELISA.

For test [15], the target named is T12, EDIII-DV2 (E protein domain III of dengue virus serotype DV-2) (dengue virus serotype DV-2, UniProt P14337 573-677).
T12 construct: also called DENV-2; EDIII of DV-2
Briefly: competition ELISA.

For test [16], the target named is T8, EDIII-DV4 (E protein domain III of …). This is another data set of the same source.
The target of test [17] is T13, New Guinea/1944 (NGC)* (serotype II EDIII) (Dengue virus 2).
T13 construct: isolated EDIII protein; also called EDIII of DENV-2 NGC
Nature of the test: SPR; row New Guinea/1944 (NGC)*, serotype II, genotype Asian I.

The target of test [18] is T14, Singapore/2010 (serotype IV EDIII).
T14 construct: also called ED3-DV4/Sing10; DENV-4 Sing
T14 E protein domain III (EDIII): T6 E protein domain III (EDIII) with I33V, T38A
Nature of the test: Kd table, method not stated; Ag DENV-4 Sing.

T13 sequence (P14340 578-673): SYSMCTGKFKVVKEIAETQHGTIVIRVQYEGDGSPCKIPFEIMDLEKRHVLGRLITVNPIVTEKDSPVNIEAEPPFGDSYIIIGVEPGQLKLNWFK
T11 sequence (P27915 571-678, tags left off): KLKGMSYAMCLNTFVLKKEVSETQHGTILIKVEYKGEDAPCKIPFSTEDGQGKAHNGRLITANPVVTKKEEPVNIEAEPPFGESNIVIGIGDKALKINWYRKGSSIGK
T12 sequence (P14337 573-677, tags left off): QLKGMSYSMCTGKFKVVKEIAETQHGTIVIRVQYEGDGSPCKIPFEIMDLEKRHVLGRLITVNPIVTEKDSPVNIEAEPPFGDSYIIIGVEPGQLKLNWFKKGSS

B1: antibody D88 (antibody, V domains shown)
VH: QVQLVQSGAEVKKPGASVKVSCKAGFNIKDVYMSWVRQAPEQGLEWMGRIDPENGDTKYDPKLQGRVTMTADTSTNTAYMELRSLRSDDTAVYYCARGWEGFAYWGQGTLVTVSS
VL: DIVMTQSPASLAVSLGERATISCRASENVDKYGNSFMHWYQQKPGQPPKLLIYRASELQWGVPDRFSGSGSGTDFTLTISSLQAEDVAVYYCQRSNEVPWTFGQGTKLEIK
notes: also called mAb D88
Consider B1, for which the Kd is 1.36 nM in test [1]; 0.029 nM in test [2]; less than 0.1 nM in [3]; 118 nM in [4]; 0.35 nM in test [5]; 7.2 nM in test [6]. In addition, the Kd is 7.9 nM in test [7]; 4.91 nM in test [8]; 3.8 nM in [9]; less than 0.1 nM in test [10]; 0.012 nM in test [11]; 612 nM in test [12]. In addition, the Kd is less than 0.1 nM in test [13]; 1.21 nM in test [14]; less than 0.1 nM in [15]; 3.12 nM in test [16]; 0.016 nM in test [17]; 8.4 nM in [18].
